Results taken from the supplement of paper PMC10065799, “High-throughput profiling of sequence recognition by tyrosine kinases and SH2 domains using bacterial peptide display” (eLife, 2023).

biological target: MERTK (UniProt Q12866); experiment: phosphorylation enrichment, bacterial display (enrichment ratio); higher = better substrate or ligand; peptides without Tyr show the background
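Note: 11-residue human phosphosite peptides and single-mutation variants displayed on the E. coli surface, counted by deep sequencing, each peptide's frequency after selection divided by its frequency in the unselected input library; frequency after pTyr selection over input frequency; kinase dosed for 20-30% of maximal phosphorylation in three min.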

Chain of MERTK (Q12866 whole entry, looked up): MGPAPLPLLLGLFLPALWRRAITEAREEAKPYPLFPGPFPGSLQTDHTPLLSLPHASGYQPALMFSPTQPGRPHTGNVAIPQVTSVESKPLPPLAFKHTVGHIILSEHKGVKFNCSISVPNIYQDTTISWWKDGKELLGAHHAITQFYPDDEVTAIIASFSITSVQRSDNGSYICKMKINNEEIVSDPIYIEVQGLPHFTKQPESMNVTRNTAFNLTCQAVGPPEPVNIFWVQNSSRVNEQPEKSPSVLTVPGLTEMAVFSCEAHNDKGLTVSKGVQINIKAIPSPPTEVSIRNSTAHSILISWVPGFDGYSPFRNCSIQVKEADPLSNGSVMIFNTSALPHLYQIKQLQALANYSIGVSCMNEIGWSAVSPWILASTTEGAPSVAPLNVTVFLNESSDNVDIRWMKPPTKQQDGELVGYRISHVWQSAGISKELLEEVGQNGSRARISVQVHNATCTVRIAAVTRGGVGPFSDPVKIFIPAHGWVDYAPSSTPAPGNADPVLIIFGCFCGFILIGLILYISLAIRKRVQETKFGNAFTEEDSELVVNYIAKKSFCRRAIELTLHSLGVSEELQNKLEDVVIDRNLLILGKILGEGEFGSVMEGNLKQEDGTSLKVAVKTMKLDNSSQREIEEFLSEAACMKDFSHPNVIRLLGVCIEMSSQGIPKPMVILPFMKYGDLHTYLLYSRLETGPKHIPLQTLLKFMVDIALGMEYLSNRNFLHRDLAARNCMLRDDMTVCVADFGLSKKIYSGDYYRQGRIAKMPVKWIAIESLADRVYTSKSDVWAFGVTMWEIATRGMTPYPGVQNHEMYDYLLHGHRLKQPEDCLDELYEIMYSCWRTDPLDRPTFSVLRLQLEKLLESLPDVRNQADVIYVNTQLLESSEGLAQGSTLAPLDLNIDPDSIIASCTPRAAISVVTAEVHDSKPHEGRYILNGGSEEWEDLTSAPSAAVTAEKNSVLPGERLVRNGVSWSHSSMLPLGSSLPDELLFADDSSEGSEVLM

Row | Sequence | phosphorylation enrichment
1 | KVMANYVFKAG [MAML2_Y513_M514V_YF] | 0.401
2 | WGLCSYYETSK [MAGED2_Y448_R446C] | 0.56
3 | KDIENHIQDGK [RAD50_Y964_Y964H] | 0.413
4 | FHKALYTVRTY [PDE6C_Y266_S270T] | 0.519
5 | RHRSGYVLIAM [EFR3A_Y73] | 0.475
6 | AVNDFYAAKKT [CCDC178_Y422] | 0.449
7 | HSFQCYGQNEA [ENTPD3_Y262_R264Q] | 0.422
8 | HSVVQYVGGVM [FGGY_Y136_L134V] | 0.603
9 | KQINDYVEKGT [SERPINA1_Y184] | 0.374
10 | HNLPIYEGFAL [ACTA1_Y168_V165L_YF] | 12.6
11 | KEDSAYGSQSV [NFKB2_Y868] | 0.454
12 | YSNVLYRPRGA [TMIGD2_Y197] | 2.23
13 | RELGEYALAEY [ALDH1A3_Y492] | 0.55
14 | YTGSTYRVGDT [FN1_Y106_N104S] | 0.355
15 | GHLYAYNWISI [BEST1_Y227_D228N] | 8.13
16 | DYYDLYGGEKK [PTPN11_Y66_F71K] | 2.72
17 | PPSGEYFGQCG [TRIP6_Y275] | 0.573

Row | Sequence | phosphorylation enrichment
18 | LFLACYFIGGG [UBD_Y161_C162F] | 0.45
19 | IENKLYGTSDP [RET_Y1062_M1064T] | 0.526
20 | REEKNYKLKET [BCLAF1_Y459] | 1.14
21 | LYDPDFMKVIL [CYP4A22_Y104_Y104F] | 2.57
22 | FGLDRYQCDCT [PTGS1_Y54] | 0.454
23 | QMVDMYASSYM [AVPR2_Y124_G122D] | 0.842
24 | EKIANYKEGTY [CLRN1_Y171] | 0.41
25 | HSLHDYKEALM [ADA2_Y337] | 0.431
26 | TQPSPYAVYLF [RPGRIP1_Y823_R827L] | 6.5
27 | FADIAYNYRHA [PAH_Y166_G171A] | 0.466
28 | LREIRYQGGNR [VWF_Y1570_V1565L] | 0.52
29 | VGIMLYGVDSR [PKD1_Y3143] | 0.383
30 | THPFLYLSLEI [MLH1_Y293] | 0.385
31 | RELGEYGLQAY [ALDH2_Y497] | 0.562
32 | VPEANYTSDEE [STK33_Y439_D436E] | 0.699
33 | TKLKDYFIFNK [CCDC42_Y149_A144T_YF] | 0.401

test system: c-Abl (mouse); experiment: as above

Row | Sequence | phosphorylation enrichment
34 | KVMANYVFKAG [MAML2_Y513_M514V_YF] | 0.485
35 | WGLCSYYETSK [MAGED2_Y448_R446C] | 0.818
36 | KDIENHIQDGK [RAD50_Y964_Y964H] | 0.392
37 | FHKALYTVRTY [PDE6C_Y266_S270T] | 0.964
38 | RHRSGYVLIAM [EFR3A_Y73] | 0.528
39 | AVNDFYAAKKT [CCDC178_Y422] | 0.61
40 | HSFQCYGQNEA [ENTPD3_Y262_R264Q] | 0.793
41 | HSVVQYVGGVM [FGGY_Y136_L134V] | 0.61
42 | KQINDYVEKGT [SERPINA1_Y184] | 0.546
43 | HNLPIYEGFAL [ACTA1_Y168_V165L_YF] | 14
44 | KEDSAYGSQSV [NFKB2_Y868] | 0.911
45 | YSNVLYRPRGA [TMIGD2_Y197] | 0.692
46 | RELGEYALAEY [ALDH1A3_Y492] | 1.67
47 | YTGSTYRVGDT [FN1_Y106_N104S] | 0.595
48 | GHLYAYNWISI [BEST1_Y227_D228N] | 1.21
49 | DYYDLYGGEKK [PTPN11_Y66_F71K] | 0.945
50 | PPSGEYFGQCG [TRIP6_Y275] | 1.58

Row | Sequence | phosphorylation enrichment
51 | LFLACYFIGGG [UBD_Y161_C162F] | 1.03
52 | IENKLYGTSDP [RET_Y1062_M1064T] | 0.818
53 | REEKNYKLKET [BCLAF1_Y459] | 1.16
54 | LYDPDFMKVIL [CYP4A22_Y104_Y104F] | 1.8
55 | FGLDRYQCDCT [PTGS1_Y54] | 0.796
56 | QMVDMYASSYM [AVPR2_Y124_G122D] | 0.891
57 | EKIANYKEGTY [CLRN1_Y171] | 0.76
58 | HSLHDYKEALM [ADA2_Y337] | 0.664
59 | TQPSPYAVYLF [RPGRIP1_Y823_R827L] | 9.15
60 | FADIAYNYRHA [PAH_Y166_G171A] | 0.474
61 | LREIRYQGGNR [VWF_Y1570_V1565L] | 0.653
62 | VGIMLYGVDSR [PKD1_Y3143] | 0.77
63 | THPFLYLSLEI [MLH1_Y293] | 0.817
64 | RELGEYGLQAY [ALDH2_Y497] | 0.962
65 | VPEANYTSDEE [STK33_Y439_D436E] | 1.17
66 | TKLKDYFIFNK [CCDC42_Y149_A144T_YF] | 0.476
